One protein from PMC12404492, “The crystal structure of Thermus thermophilus UMP kinase complexed with a phosphoryl group acceptor and donor” (PLOS One, 2025) can be followed below.

Substrate in the data set: O=c1ccn([C@@H]2O[C@H](COP(=O)(O)O)[C@@H](O)[C@H]2O)c(=O)[nH]1
In words: purified protein. In kind it is biochemical, Thermus thermophilus. The note with it: without GTP, 1 mM ATP, 5 mM MgCl2, 100 mM KCl, 50 mM Tris-HCl pH 7.5, 25°C.

B1: ttUMPK (UMP kinase of Thermus thermophilus HB8) (Thermus thermophilus HB8) (protein)
chain: MKYKRVLLKLSGEFLTRNGFGIEPEATQALAREIKAAYDTGVQLAIVIGAGNLWRGARQGVGMDRATADYIGMLATIMNALALQDALESLGVPTRVQTALTITQVAEPYIRRRALRHLEKERIVIFGGGTGNPFFSTDTAAALRALEVGAEVVLMAKNKVDGVYSDDPRKNPEAVRFDELTYLEVLNRGLQVMDTTAITLCMEAGLPIVVFDIFKPGALVGIIQGEKVGTLIH
notes: full-length gene in pET-11a (NdeI/BamHI), no tag mentioned; expressed in E. coli BL21(DE3), heat-treated; homohexamer by size exclusion
B1: the Michaelis-Menten constant (Km) is 46 µM and the kcat came to 13 s⁻¹.

For orientation: Km means the substrate concentration at which the rate is half of its maximum. By kcat is commonly meant the number of substrate molecules converted per active site and unit of time at saturation.
